Reference: the supplement of paper PMC9112550, “Optimization of the antimicrobial peptide Bac7 by deep mutational scanning” (BMC Biology, 2022)

Test system: Escherichia coli TOP10
Assay: shrunken log2 fold change of peptide-encoding DNA abundance (4.5 h post-induction vs induction); higher = less antimicrobial activity (less host growth inhibition)
Conditions: time post-induction: 4.5 h; library: site-saturation at positions 5, 18, 19, 20
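Also: peptides expressed intracellularly from a pBAD plasmid library in pooled LB shake-flask culture, induced with 0.3% L-arabinose, DNA abundance read by NGS, three biological replicates, DESeq2 with apeglm shrinkage.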

Sequence	shrunken log2 fold change
RRIRVRPPRLPRPRPRPWLMPRP	-0.136
RRIRCRPPRLPRPRPRPPSIPRP	0.0499
RRIRRRPPRLPRPRPRPYIVPRP	-0.263
RRIRARPPRLPRPRPRPKGYPRP	0.049
RRIRRRPPRLPRPRPRPANRPRP	-0.0151
RRIRIRPPRLPRPRPRPYPRPRP	-0.311
RRIRERPPRLPRPRPRPFPQPRP	2.37
RRIRMRPPRLPRPRPRPDHDPRP	-0.0765
RRIRLRPPRLPRPRPRPFNTPRP	0.724
RRIRSRPPRLPRPRPRPAGEPRP	0.0686
RRIRMRPPRLPRPRPRPISYPRP	-0.0167
RRIRIRPPRLPRPRPRPMYRPRP	-0.0946
RRIRDRPPRLPRPRPRPQYHPRP	-0.47
RRIRWRPPRLPRPRPRPSGFPRP	0.121
RRIRDRPPRLPRPRPRPEYPPRP	-0.0367
RRIRQRPPRLPRPRPRPVLLPRP	-0.154
RRIRERPPRLPRPRPRPQNEPRP	-0.581
RRIRARPPRLPRPRPRPQMIPRP	0.181
RRIRMRPPRLPRPRPRPYGYPRP	0.0362
RRIRPRPPRLPRPRPRPGVPPRP	0.301
RRIRLRPPRLPRPRPRPHNQPRP	-0.479
RRIRGRPPRLPRPRPRPTLQPRP	0.779
RRIRMRPPRLPRPRPRPPDLPRP	0.129
RRIRIRPPRLPRPRPRPWILPRP	-0.349
RRIRTRPPRLPRPRPRPFWHPRP	0.23

Sequence	shrunken log2 fold change
RRIRNRPPRLPRPRPRPCDRPRP	0.0883
RRIRIRPPRLPRPRPRPPCEPRP	0.00219
RRIRHRPPRLPRPRPRPFIAPRP	-0.272
RRIRQRPPRLPRPRPRPNAAPRP	0.0416
RRIRERPPRLPRPRPRPNDWPRP	-0.133
RRIRIRPPRLPRPRPRPTLDPRP	1.36
RRIRHRPPRLPRPRPRPGICPRP	-0.154
RRIRIRPPRLPRPRPRPKFVPRP	-0.0693
RRIRARPPRLPRPRPRPYIHPRP	-0.681
RRIRMRPPRLPRPRPRPVFDPRP	0.184
RRIRHRPPRLPRPRPRPREYPRP	-0.0589
RRIRSRPPRLPRPRPRPHTPPRP	-0.318
RRIRMRPPRLPRPRPRPKRCPRP	0.211
RRIRSRPPRLPRPRPRPPWDPRP	0.409
RRIRYRPPRLPRPRPRPLEGPRP	0.0645
RRIRGRPPRLPRPRPRPIRMPRP	0.0246
RRIRARPPRLPRPRPRPIMFPRP	-0.0901
RRIRYRPPRLPRPRPRPKVCPRP	0.0165
RRIRTRPPRLPRPRPRPTGHPRP	0.131
RRIRARPPRLPRPRPRPPVNPRP	0.36
RRIRHRPPRLPRPRPRPTPQPRP	0.541
RRIRHRPPRLPRPRPRPLCQPRP	-0.316
RRIRSRPPRLPRPRPRPPCCPRP	-0.107
RRIRIRPPRLPRPRPRPRTSPRP	0.0339
RRIRSRPPRLPRPRPRPLFMPRP	-0.236

Sequence	shrunken log2 fold change
RRIRVRPPRLPRPRPRPYYHPRP	-0.877
RRIRGRPPRLPRPRPRPTHWPRP	0.629
RRIRNRPPRLPRPRPRPSMRPRP	0.000173
RRIRDRPPRLPRPRPRPDVHPRP	0.244
RRIRTRPPRLPRPRPRPPDKPRP	-0.146
RRIRWRPPRLPRPRPRPILSPRP	-0.422
RRIRYRPPRLPRPRPRPDADPRP	0.00911
RRIRNRPPRLPRPRPRPLWPPRP	0.14
RRIRERPPRLPRPRPRPVERPRP	-0.00844
RRIRPRPPRLPRPRPRPDACPRP	0.183
RRIRNRPPRLPRPRPRPVNMPRP	0.131
RRIRQRPPRLPRPRPRPYQAPRP	-0.232
RRIRGRPPRLPRPRPRPCLPPRP	-0.0995
RRIRERPPRLPRPRPRPFDIPRP	-0.103
RRIRWRPPRLPRPRPRPWCHPRP	-0.422
RRIRPRPPRLPRPRPRPEYAPRP	0.0857
RRIRQRPPRLPRPRPRPWIHPRP	-0.103
RRIRARPPRLPRPRPRPFSQPRP	-0.0436
RRIRQRPPRLPRPRPRPNTCPRP	-1.35
RRIRPRPPRLPRPRPRPEKRPRP	0.0688
RRIRGRPPRLPRPRPRPTAFPRP	1.19
RRIRERPPRLPRPRPRPTNGPRP	-0.163
RRIRHRPPRLPRPRPRPDPGPRP	-0.199
RRIRPRPPRLPRPRPRPYMPPRP	-0.854
RRIRERPPRLPRPRPRPNRMPRP	-1.36

Sequence	shrunken log2 fold change
RRIRHRPPRLPRPRPRPGCAPRP	0.124
RRIRNRPPRLPRPRPRPMGKPRP	-0.491
RRIRCRPPRLPRPRPRPLTKPRP	0.291
RRIRSRPPRLPRPRPRPWNLPRP	-1.05
RRIRGRPPRLPRPRPRPMGNPRP	0.124
RRIRLRPPRLPRPRPRPKAMPRP	-0.023
RRIRDRPPRLPRPRPRPEQWPRP	-0.0491
RRIRVRPPRLPRPRPRPQKQPRP	-0.376
RRIRWRPPRLPRPRPRPHCLPRP	0.0644
RRIRGRPPRLPRPRPRPVKVPRP	0.425
RRIRERPPRLPRPRPRPRKIPRP	0.0442
RRIRARPPRLPRPRPRPWLPPRP	0.197
RRIRHRPPRLPRPRPRPLAYPRP	-0.351
RRIRQRPPRLPRPRPRPCKTPRP	-0.01
RRIRGRPPRLPRPRPRPDACPRP	1.23
RRIRVRPPRLPRPRPRPERAPRP	0.264
RRIRGRPPRLPRPRPRPVESPRP	0.00705
RRIRSRPPRLPRPRPRPSEPPRP	-0.167
RRIRHRPPRLPRPRPRPKCPPRP	-0.0954
RRIRIRPPRLPRPRPRPYHMPRP	-0.123
RRIRVRPPRLPRPRPRPHYQPRP	-0.213
RRIRNRPPRLPRPRPRPGHHPRP	-0.00875
RRIRKRPPRLPRPRPRPIHCPRP	0.0163
RRIRFRPPRLPRPRPRPYDLPRP	-1.02
RRIRTRPPRLPRPRPRPIWFPRP	-0.033

Sequence	shrunken log2 fold change
RRIRYRPPRLPRPRPRPGEDPRP	-0.00904
RRIRTRPPRLPRPRPRPIVRPRP	-0.00141
RRIRRRPPRLPRPRPRPDRKPRP	-0.145
RRIRRRPPRLPRPRPRPRCDPRP	0.306
RRIRMRPPRLPRPRPRPQWYPRP	-0.161
RRIRWRPPRLPRPRPRPSFYPRP	-0.328
RRIRPRPPRLPRPRPRPDEVPRP	0.188
RRIRRRPPRLPRPRPRPGSKPRP	-0.0919
RRIRYRPPRLPRPRPRPVNCPRP	0.0039
RRIRCRPPRLPRPRPRPNSRPRP	-0.175
RRIRRRPPRLPRPRPRPPWRPRP	0.757
RRIRERPPRLPRPRPRPTNTPRP	-0.697
RRIRHRPPRLPRPRPRPPTGPRP	0.03
RRIRIRPPRLPRPRPRPTGEPRP	0.00229
RRIRKRPPRLPRPRPRPVDGPRP	0.344
RRIRSRPPRLPRPRPRPYMLPRP	-0.981
RRIRARPPRLPRPRPRPDSKPRP	0.149
RRIRDRPPRLPRPRPRPSVMPRP	0.198
RRIRMRPPRLPRPRPRPDGYPRP	0.818
RRIRKRPPRLPRPRPRPTGVPRP	0.00874
RRIRDRPPRLPRPRPRPNCGPRP	0.387
RRIRSRPPRLPRPRPRPKCDPRP	0.00444
RRIRCRPPRLPRPRPRPWRFPRP	0.145
RRIRYRPPRLPRPRPRPATEPRP	0.0247
RRIRQRPPRLPRPRPRPSGPPRP	-0.0826

Sequence	shrunken log2 fold change
RRIRARPPRLPRPRPRPFWNPRP	0.127
RRIRNRPPRLPRPRPRPFSSPRP	-0.0316
RRIRQRPPRLPRPRPRPLHTPRP	0.0932
RRIRDRPPRLPRPRPRPTGWPRP	1.21
RRIRSRPPRLPRPRPRPWFMPRP	-0.86
RRIRLRPPRLPRPRPRPPMRPRP	1
RRIRVRPPRLPRPRPRPHFGPRP	-0.0294
RRIRYRPPRLPRPRPRPLTSPRP	-0.853
RRIRARPPRLPRPRPRPWCHPRP	-0.0135
RRIRYRPPRLPRPRPRPKPKPRP	0.394
RRIRFRPPRLPRPRPRPQMPPRP	-0.107
RRIRARPPRLPRPRPRPECVPRP	1.07
RRIRWRPPRLPRPRPRPSIYPRP	-0.305
RRIRFRPPRLPRPRPRPPELPRP	0.106
RRIRMRPPRLPRPRPRPPPDPRP	1.9
RRIRLRPPRLPRPRPRPRPLPRP	0.579
RRIRGRPPRLPRPRPRPWIMPRP	-0.209
RRIRFRPPRLPRPRPRPNIFPRP	-0.229
RRIRMRPPRLPRPRPRPPNDPRP	0.574
RRIRTRPPRLPRPRPRPHYWPRP	-0.25
RRIRFRPPRLPRPRPRPKESPRP	-0.0731
RRIRTRPPRLPRPRPRPGAPPRP	0.479
RRIRERPPRLPRPRPRPNCLPRP	-0.297
RRIRPRPPRLPRPRPRPPGQPRP	0.141
RRIRQRPPRLPRPRPRPEGMPRP	0.13
